Source: IntAct's records for PubMed 21471201

B1: NAD-dependent protein deacetylase sirtuin-1 (Homo sapiens), Q96EB6 (parent)
chain: MADEAALALQPGGSPSAAGADREAASSPAGEPLRKRPRRDGPGLERSPGEPGGAAPEREVPAAARGCPGAAAAALWREAEAEAAAAGGEQEAQATAAAGEGDNGPGLQGPSREPPLADNLYDEDDDDEGEEEEEAAAAAIGYRDNLLFGDEIITNGFHSCESDEEDRASHASSSDWTPRPRIGPYTFVQQHLMIGTDPRTILKDLLPETIPPPELDDMTLWQIVINILSEPPKRKKRKDINTIEDAVKLLQECKKIIVLTGAGVSVSCGIPDFRSRDGIYARLAVDFPDLPDPQAMFDIEYFRKDPRPFFKFAKEIYPGQFQPSLCHKFIALSDKEGKLLRNYTQNIDTLEQVAGIQRIIQCHGSFATASCLICKYKVDCEAVRGDIFNQVVPRCPRCPADEPLAIMKPEIVFFGENLPEQFHRAMKYDKDEVDLLIVIGSSLKVRPVALIPSSIPHEVPQILINREPLPHLHFDVELLGDCDVIINELCHRLGGEYAKLCCNPVKLSEITEKPPRTQKELAYLSELPPTPLHVSEDSSSPERTSPPDSSVIVTLLDQAAKSNDDLDVSESKGCMEEKPQEVQTSRNVESIAEQMENPDLKNVGSSTGEKNERTSVAGTVRKCWPNRVAKEQISRRLDGNQYLFLPPNRYIFHGAEVYSDSEDDVLSSSSCGSNSDSGTCQSPSLEEPMEDESEIEEFYNGLEDEPDVPERAGGAGFGTDGDDQEAINEAISVKQEVTDMNYPSNKS

Variants of: B1
Settings: with rptor_human RPTOR

| Variant | effect of a mutation on the interaction |
| --- | --- |
| F474A | decreasing interaction |
